The record followed here is article PMC2824750.

The target in test [1] is in vitro translated 35S-labelled Ehmeth, full length (TNT-Ehmeth) (E. histolytica).
In test [2] the target is calmodulin, histidine, hemagglutin (CHH)-tagged-Ehmeth (E. histolytica). In words: co-IP; anti-HA immunoprecipitation from nuclear lysate of E. histolytica trophozoites expressing a CHH-tagged protein, HNTG buffer (20 mM Hepes pH 7.5, 150 mM NaCl, 0.1% Triton, 10% glycerol), 4°C; blot with anti-enolase; trophozoites grown in regular medium or starved of glucose for 12 hours.

B1: GST-Ehenolase (enzyme)
chain: MSIQKVHAREILDSRGNPTIEVEITTGKGMFRSCVPSGASTGVHEAVELRDGDKKRYGGKGVLKAVENVNTIIGPALLGKNVLNQAELDEMMIKLDGTNNKGKLGANAILGCSMSICRAAAAEKGLPLYKYLAELTGHKEMTMPVPCFNVINGGAHAGNALAMQEFMICPTGATNFHEALRMAAETYQCLKVVIKAKYGQDATNVGDEGGFAPNVSGAREALDLLVEAIAKAGYTGKIEIAMDCAASEFYNEETKKYDLGKKIPADKKDPSLVKDVDGLIAEYVDYGKHYPIASIEDPFAEDDWAAWNKFTVEHGNFQIVGDDLLVTNPARVQMAMDKNACNSVLIKVNQIGTLTETFKTIKMAQEKGWGVMASHRSGETEDTFIADLVVGLNCKQIKTGAPCRSERLCKYNQLMRIEEELGNIPYAGKNWRNSTA
On to B1, for which the inhibition of the tRNA^Asp methyltransferase activity of recombinant Ehmeth (0.4 nmol) by GST-Enolase (2 nmol) in test [1] came to 60 % inhibition.

B2: endogenous enolase of E. histolytica trophozoites (enzyme)
chain: MSIQKVHAREILDSRGNPTIEVEITTGKGMFRSCVPSGASTGVHEAVELRDGDKKRYGGKGVLKAVENVNTIIGPALLGKNVLNQAELDEMMIKLDGTNNKGKLGANAILGCSMSICRAAAAEKGLPLYKYLAELTGHKEMTMPVPCFNVINGGAHAGNALAMQEFMICPTGATNFHEALRMAAETYQCLKVVIKAKYGQDATNVGDEGGFAPNVSGAREALDLLVEAIAKAGYTGKIEIAMDCAASEFYNEETKKYDLGKKIPADKKDPSLVKDVDGLIAEYVDYGKHYPIASIEDPFAEDDWAAWNKFTVEHGNFQIVGDDLLVTNPARVQMAMDKNACNSVLIKVNQIGTLTETFKTIKMAQEKGWGVMASHRSGETEDTFIADLVVGLNCKQIKTGAPCRSERLCKYNQLMRIEEELGNIPYAGKNWRNSTA
On to B2, for which, in test [2], the fold more complex after glucose starvation than in regular medium turned out to be 3 fold.
